Assay results published in publication PMC2993495 (Molecular cell, 2009).
Residue numbers refer to the chain shown, from its start. “And” between values parts separate entries of the source, which are not always exact repeats. Equal entries are not always repeated. Each block holds one molecule with its values, some of them ahead of it.

Legend:
[1] = target: His6-tagged wild-type Mms21 (budding yeast (S. cerevisiae)) (UniProt P38632); experiment: ITC
[2] = target: Mms21-M1, His6-tagged (budding yeast (S. cerevisiae)) (UniProt P38632); experiment: pull-down
Smc5-TAF = target: T1, Smc5-TAF (budding yeast (S. cerevisiae), UniProt Q08204 1-1093); experiment: co-IP
T1 sequence (looked up): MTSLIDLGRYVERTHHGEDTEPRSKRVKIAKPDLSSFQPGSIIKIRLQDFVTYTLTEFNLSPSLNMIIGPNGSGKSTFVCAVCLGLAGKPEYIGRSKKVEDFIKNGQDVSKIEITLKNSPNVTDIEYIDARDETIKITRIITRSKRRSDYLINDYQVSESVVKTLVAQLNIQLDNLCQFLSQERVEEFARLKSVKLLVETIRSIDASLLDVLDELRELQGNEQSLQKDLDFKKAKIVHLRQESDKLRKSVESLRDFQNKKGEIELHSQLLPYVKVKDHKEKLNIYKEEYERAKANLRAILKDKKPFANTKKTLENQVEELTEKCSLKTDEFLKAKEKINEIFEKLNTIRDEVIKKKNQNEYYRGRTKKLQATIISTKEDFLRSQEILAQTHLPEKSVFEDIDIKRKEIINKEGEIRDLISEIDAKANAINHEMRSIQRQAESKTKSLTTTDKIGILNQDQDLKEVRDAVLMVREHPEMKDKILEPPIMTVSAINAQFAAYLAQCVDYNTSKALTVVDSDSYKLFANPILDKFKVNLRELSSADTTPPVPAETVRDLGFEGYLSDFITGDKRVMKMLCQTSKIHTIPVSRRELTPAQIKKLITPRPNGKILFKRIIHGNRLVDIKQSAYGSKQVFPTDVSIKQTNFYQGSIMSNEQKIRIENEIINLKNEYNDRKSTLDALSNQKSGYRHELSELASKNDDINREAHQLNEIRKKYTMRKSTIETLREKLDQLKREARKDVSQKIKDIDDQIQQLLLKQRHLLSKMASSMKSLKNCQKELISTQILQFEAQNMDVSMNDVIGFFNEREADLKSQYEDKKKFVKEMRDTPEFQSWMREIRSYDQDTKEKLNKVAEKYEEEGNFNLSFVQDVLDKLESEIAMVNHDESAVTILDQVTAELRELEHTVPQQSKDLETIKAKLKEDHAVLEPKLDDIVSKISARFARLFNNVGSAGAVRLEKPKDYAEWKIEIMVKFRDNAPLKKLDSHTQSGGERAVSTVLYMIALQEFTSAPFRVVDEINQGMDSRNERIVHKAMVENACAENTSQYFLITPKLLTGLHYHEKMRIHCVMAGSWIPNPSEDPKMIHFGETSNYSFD

[3] = target: T2, Mms21, full length (crystallised complex) (budding yeast (S. cerevisiae), UniProt P38632 1-267); experiment: crystal structure
T2 sequence (looked up): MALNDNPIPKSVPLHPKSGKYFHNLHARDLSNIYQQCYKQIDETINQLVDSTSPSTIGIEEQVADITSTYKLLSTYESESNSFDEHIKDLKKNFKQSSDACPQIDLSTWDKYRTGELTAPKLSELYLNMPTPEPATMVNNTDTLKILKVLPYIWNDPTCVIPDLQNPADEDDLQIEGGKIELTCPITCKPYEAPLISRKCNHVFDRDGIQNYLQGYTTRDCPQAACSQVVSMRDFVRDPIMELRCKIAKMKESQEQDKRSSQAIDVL

Molecule: GST-Smc5-arm (from UniProt Q08204 302-369; Q08204 733-813) (domain or fragment)
dH [1]: -18.2 kcal/mol and -22 kcal/mol
Smc5 binding, percent of wild-type (% of wild-type) [2]: 84

B1: mms21-M1-3HA (natural protein, budding yeast (S. cerevisiae))
chain: T2 sequence (looked up) with P9A, V12A, L14A, H15A
Smc5 binding, percent of wild-type (Smc5-TAF): 5 % of wild-type

B4: Smc5 arm chimera (Asp302-Leu369, Gly-Ser-Gly-Ser linker, Lys733-Gln813), 6xHis-tagged (domain or fragment, budding yeast (S. cerevisiae))
chain: DKKPFANTKKTLENQVEELTEKCSLKTDEFLKAKEKINEIFEKLNTIRDEVIKKKNQNEYYRGRTKKLGSGSKREARKDVSQKIKDIDDQIQQLLLKQRHLLSKMASSMKSLKNCQKELISTQILQFEAQNMDVSMNDVIGFFNEREADLKSQ
binding result [3]: binds

Further lines, results first:

Smc5 binding, percent of wild-type (Smc5-TAF): 30 % of wild-type
B2: mms21-M3-3HA (natural protein, budding yeast (S. cerevisiae))
chain: T2 sequence (looked up) with I33A, Y34A, C37A

Smc5 binding, percent of wild-type (Smc5-TAF): 66 % of wild-type
B3: mms21-M5-3HA (natural protein, budding yeast (S. cerevisiae))
chain: T2 sequence (looked up) with Y76A, E79A, S80A, F83A
